Each block holds one molecule with its values, some of them ahead of it.
Key:
[1] = Evaluation of adsorbability with respect to culture dish (OPA/NAC fluorescence); type: physicochemical; conditions: FIG. 1
Description: Each of the polypeptides obtained as above was diluted with a predetermined buffer such that they could be added to wells at a predetermined final concentration of 0 pmol/cm^2 to 200 pmol/cm^2. Thereafter, each of the polypeptides was added in an amount of 64 μL to a plasma-treated 96-well plate made of polystyrene (Tissue Culture-Treated, Falcon). Each of the polypeptides was allowed to adsorbed onto the plate by being incubated for 2 hours at 37° C., and then the wells were washed twice with PBS, thereby obtaining surfaces coated with each of the polypeptides of RCP-1 to RCP-16.
Among the surfaces coated with each of the polypeptides obtained as above, the surfaces coated with RCP-1 and RCP-11 to RCP-16 were applied with 64 μL of a borate buffer and 64 μL of 1 N NaOH, followed by incubation for 24 hours at 80° C. and 100% humidity. […] After incubation for 30 minutes at 40° C., the fluorescence intensity thereof was measured by using an ENVISION MULTILABEL COUNTER (trade name, PerkinElmer Inc.) (excitation 355 nm/fluorescence 486 nm). […]

[2] = test system: iPS cells; test: Cell growth property evaluation 2 (ALP activity, 72 hours); type: cell-based, human; conditions: for Number of cells (%/LN-511): same method as Cell growth property evaluation 2, Table 13
Description: Each of the polypeptide liquids was added to the respective wells of a plasma-treated 96-well plate (BD Falcon) made of polystyrene having a plasma-treated cell culture surface, and the plate was held as it is for 2 hours at 37° C. such that the polypeptide was adsorbed thereonto, thereby obtaining a peptide-treated 96-well plate having a polypeptide-coated surface. Into the respective wells of the obtained peptide-treated 96-well plate, iPS cells suspended in a medium obtained by mixing TeSR2 (Stemcell Technologies Inc.) with NUTRISTEM (registered trademark, Bio Industries Inc.) at 1:1 (volume ratio) were seeded at a cell density of 10,000 cells/well. After 72 hours of culture, nonadhesive cells were washed off with PBS, and only adhesive cells were immobilized using 4% by mass paraformaldehyde (Wako Pure Chemical Industries, Ltd.). By using an ATTOPHOS (registered trademark) AP FLUORESCENT SUBSTRATE SYSTEM (Promega Corporation), the ALP activity was calculated, and from the calibration curve, the number of undifferentiated iPS cells having the ALP activity was calculated. In Table 11, the cell growth rate is expressed as a ratio calculated by regarding the number of cells after 72 hours of culture using recombinant laminin as being 100%. n=3.
By the same method as described in <Cell growth property evaluation 2> of Example 3, the cell growth properties of the polypeptide compositions II-1 and II-2 was evaluated. […] That is, it was understood that the polypeptide in which Cys 25, Cys 31, and the intramolecular cross-linking structure bind with each other is excellent in the cell growth activity.

[3] = target: T1, Plasminogen Activator Inhibitor-1 (PAI-1) (Homo sapiens, UniProt P05121); test: Evaluation of PAI-1 binding properties (plate assay, Scatchard plot); conditions: for Binding constant: KA from slope of Scatchard plot, PAI-1 170 nM to 2.6 nM, RCP-5 immobilized from 100 μg/ml
T1 construct: purchased R & D Systems Inc 1786-PI
T1 sequence (P05121 24-402): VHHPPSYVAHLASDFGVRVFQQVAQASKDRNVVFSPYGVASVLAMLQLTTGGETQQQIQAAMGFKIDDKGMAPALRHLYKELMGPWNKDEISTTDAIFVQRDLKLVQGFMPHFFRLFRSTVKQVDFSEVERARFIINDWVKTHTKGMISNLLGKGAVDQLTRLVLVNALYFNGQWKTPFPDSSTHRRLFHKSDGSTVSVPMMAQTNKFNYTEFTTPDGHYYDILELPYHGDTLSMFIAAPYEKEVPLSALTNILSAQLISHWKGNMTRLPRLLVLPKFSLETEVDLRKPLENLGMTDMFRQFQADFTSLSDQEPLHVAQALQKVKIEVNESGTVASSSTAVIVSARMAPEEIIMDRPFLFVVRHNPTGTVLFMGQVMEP
Description: By using a Plasminogen Activator Inhibitor-1 (PAI-1) known to bind with a polypeptide having a structure in which Cys 25 and Cys 31 are cross-linked to each other, detection of the cross-linking structure of Cys 25 and Cys 31 was tried.
The polypeptide compositions II-1 and II-2 (100 μg/ml) were added to a flat-bottomed black 96-well plate (half-Area) made of polystyrene at 64 μL/well. The entirety of the plate was covered with a sealing film (Funakoshi Co., Ltd.) and left to stand at 4° C. such that RCP-5 in each of the polypeptide compositions was immobilized. After 12 hours, the liquid in the wells was discarded, and TBS (NIPPON GENE CO., LTD.) containing 5% Bovine Serum Albumin (Sigma-Aldrich Co, LLC.) was added thereto at 150 μL/well. The plate was left to stand for 1 hour at 37° C., and then the liquid in the wells was discarded. Furthermore, BLOCKER CASEIN (trade name, Thermo Scientific Inc.) was added thereto at 150 μL/well, and the plate was left to stand at 37° C. as above so as to performing blocking. After 1 hour, TBS (TBST) containing 0.05% Tween 20 was added thereto at 150 μL/well, and the liquid was continuously discarded from the wells. By performing the above operation 4 times in total, the inside of the wells was washed.
Then, a solution of recombinant PAI-1 (catalog number 1786-PI, R & D Systems Inc) serially diluted with TBS from 170 nM to 2.6 nM at the same factor was added to the respective well at 50 μL/well, and the plate was left to stand at 37° C. After 1 hour, the PAI-1 solution was discarded from the wells, and the wells were washed with TBST 4 times in total by the same method as described above, thereby removing unbound PAI-1. […]
Furthermore, an undiluted solution of HRP-labeled anti-goat IgG antibodies (catalog number 81-1620, Life Technologies) was diluted 7,500-fold with TBS and added to the wells at 100 μL/well. […] The excitation wavelength and the fluorescence wavelength were set to be 330 nm and 410 nm respectively, and the binding of RCP-5 to PAI-1 was measured as a relative fluorescence unit by using ENVISION (trade name, PerkinElmer Inc). […]

Molecule: RCP-14: recombinant polypeptide SEQ ID NO: 27; human vitronectin positions 1-55 (GPLGDQESCKGRCTEGFNVDKKCQCDELCSYYQSCCTDYTAECKPQVTRGDVFTMPEDE; Synthetic peptide RCP-14)
amount adsorbed onto the plate, as fraction of the amount of the polypeptide including SEQ ID NO: 3 [1]: about ¼

B1: RCP-13: recombinant polypeptide SEQ ID NO: 26; human vitronectin positions 1-55, 56-130 (protein)
chain: GPLGDQESCKGRCTEGFNVDKKCQCDELCSYYQSCCTDYTAECKPQVTRGDVFTMPEDEYTVYDDGEEKNNATVHEQVGGPSLTSDLQAQSKGNPEQTPVLKPEEEAPAPEVGASKPEGIDSRPETLHPGRPQP
modifications: Synthetic peptide RCP-13
amount adsorbed onto the plate, as fraction of the amount of the polypeptide including SEQ ID NO: 3 [1]: about ¼

Binding constant [3]: 0.22 | binding constant of PAI-1 (in words) ([3]; comparison of compositions): greater
B2: II-1: polypeptide composition containing RCP-5 after reduction treatment with Tris(2-carboxyethyl)phosphine Hydrochloride and dialysis (protein)
chain: MDQESCKGRCTEGFNVDKKCQCDELCSYYQSCCTDYTAECKPQVTRGDVFTMPEDEFWGRTSAGTRQPQFISRDWHGVPGQVDAAMAGRIYISGMAPRPSLAKKQRFRHRNRKGYRSQRGHSRGRNQN
cell growth properties (in words) ([2]; comparison of compositions): better than that of the polypeptide composition II-2 | Number of cells (%/LN-511) [2]: 107 ± 47 %/LN-511

Binding constant [3]: 0.06
B3: II-2: comparative polypeptide composition containing RCP-5, frozen at −80° C. without being treated, then dialyzed (protein)
chain: B2 chain
Number of cells (%/LN-511) [2]: 79 ± 5 %/LN-511

Source: US9938505B2, “Polypeptide composition and culture method for pluripotent stem cell using same” (FUJIFILM Corporation, priority 2013, dated 2018)
